Measured values published in the supplement of paper PMC5998384.

Legend:
HeLa Kyoto [1] = assay: solubility change mitosis vs G1/S (difference of NP-40 vs SDS log2 ratios) (log2 ratio difference); higher = more soluble in mitosis
HeLa Kyoto [2] = assay: melting temperature (median over replicates), in situ; higher = more thermally stable
HeLa Kyoto [3] = assay: thermal stability score vs G1/S (z-score of summed log2 fold changes over temperatures); higher = more thermally stable than in G1/S
HeLa Kyoto [4] = assay: solubility in G1/S (NP-40 vs SDS abundance) (log2 ratio); higher = more soluble; conditions: cell cycle stage: G1/S
[5] = cell cycle stage: early G1 (4.5 h after nocodazole release)
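Wherever melting temperature (median over replicates), in situ is given: HeLa Kyoto cells synchronized by double thymidine or nocodazole block, proteins quantified by TMT10plex mass spectrometry, three independent biological replicates.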
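Wherever solubility change mitosis vs G1/S (difference of NP-40 vs SDS log2 ratios) is given: synchronized HeLa Kyoto cells (double thymidine block for G1/S, nocodazole release for mitosis), protein amounts in NP-40 versus SDS lysates quantified by mass spectrometry, three biological replicates.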
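Wherever solubility in G1/S (NP-40 vs SDS abundance) is given: HeLa Kyoto cells arrested at G1/S by double thymidine block, proteins quantified by TMT10plex mass spectrometry in mild NP-40 versus SDS extracts, three biological replicates.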
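Wherever thermal stability score vs G1/S (z-score of summed log2 fold changes over temperatures) is given: synchronized HeLa Kyoto cells, proteins quantified by TMT10plex mass spectrometry, three biological replicates, mitosis taken 0.5 h after nocodazole release, G1/S directly after double thymidine block.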

Sequence	solubility change mitosis (log2) (HeLa Kyoto [1])	melting temperature (HeLa Kyoto [2]; cell cycle stage: G1/S) [°C]	melting temperature (HeLa Kyoto [2]; cell cycle stage: mitosis) [°C]	thermal stability score (HeLa Kyoto [3]; [5])	thermal stability score (HeLa Kyoto [3]; cell cycle stage: mitosis)	solubility in G1/S (log2) (HeLa Kyoto [4])
MSSSLGKEKDSKEKDPKVPSAKEREKEAKASGGFGKESKEKEPKTKGKDAKDGKKDSSAAQPGVAFSVDNTIKRPNPAPGTRKKSSNAEVIKELNKCREENSMRLDLSKRSIHILPSSIKELTQLTELYLYSNKLQSLPAEVGCLVNLMTLALSENSLTSLPDSLDNLKKLRMLDLRHNKLREIPSVVYRLDSLTTLYLRFNRITTVEKDIKNLSKLSMLSIRENKIKQLPAEIGELCNLITLDVAHNQLEHLPKEIGNCTQITNLDLQHNELLDLPDTIGNLSSLSRLGLRYNRLSAIPRSLAKCSALEELNLENNNISTLPESLLSSLVKLNSLTLARNCFQLYPVGGPSQFSTIYSLNMEHNRINKIPFGIFSRAKVLSKLNMKDNQLTSLPLDFGTWTSMVELNLATNQLTKIPEDVSGLVSLEVLILSNNLLKKLPHGLGNLRKLRELDLEENKLESLPNEIAYLKDLQKLVLTNNQLTTLPRGIGHLTNLTHLGLGENLLTHLPEEIGTLENLEELYLNDNPNLHSLPFELALCSKLSIMSIENCPLSHLPPQIVAGGPSFIIQFLKMQGPYRAMV [SHOC2]	-0.0856	52.2	52.4	-0.46	-1.35	0.421
MSSSPVKRQRMESALDQLKQFTTVVADTGDFHAIDEYKPQDATTNPSLILAAAQMPAYQELVEEAIAYGRKLGGSQEDQIKNAIDKLFVLFGAEILKKIPGRVSTEVDARLSFDKDAMVARARRLIELYKEAGISKDRILIKLSSTWEGIQAGKELEEQHGIHCNMTLLFSFAQAVACAEAGVTLISPFVGRILDWHVANTDKKSYEPLEDPGVKSVTKIYNYYKKFSYKTIVMGASFRNTGEIKALAGCDFLTISPKLLGELLQDNAKLVPVLSAKAAQASDLEKIHLDEKSFRWLHNEDQMAVEKLSDGIRKFAADAVKLERMLTERMFNAENGK [TALDO1]	-0.00294	54.4	52.5	-7.63	-3.31	0.572
MSSSVEQKKGPTRQRKCGFCKSNRDKECGQLLISENQKVAAHHKCMLFSSALVSSHSDNESLGGFSIEDVQKEIKRGTKLMCSLCHCPGATIGCDVKTCHRTYHYHCALHDKAQIREKPSQGIYMVYCRKHKKTAHNSEADLEESFNEHELEPSSPKSKKKSRKGRPRKTNFKGLSEDTRSTSSHGTDEMESSSYRDRSPHRSSPSDTRPKCGFCHVGEEENEARGKLHIFNAKKAAAHYKCMLFSSGTVQLTTTSRAEFGDFDIKTVLQEIKRGKRMKCTLCSQPGATIGCEIKACVKTYHYHCGVQDKAKYIENMSRGIYKLYCKNHSGNDERDEEDEERESKSRGKVEIDQQQLTQQQLNGN [PHF6]	0.284	48.6	50.6	1.18	1.95	-0.717
MSSTSPNLQKAIDLASKAAQEDKAGNYEEALQLYQHAVQYFLHVVKYEAQGDKAKQSIRAKCTEYLDRAEKLKEYLKNKEKKAQKPVKEGQPSPADEKGNDSDGEGESDDPEKKKLQNQLQGAIVIERPNVKWSDVAGLEGAKEALKEAVILPIKFPHLFTGKRTPWRGILLFGPPGTGKSYLAKAVATEANNSTFFSISSSDLVSKWLGESEKLVKNLFQLARENKPSIIFIDEIDSLCGSRSENESEAARRIKTEFLVQMQGVGVDNDGILVLGATNIPWVLDSAIRRRFEKRIYIPLPEPHARAAMFKLHLGTTQNSLTEADFRELGRKTDGYSGADISIIVRDALMQPVRKVQSATHFKKVRGPSRADPNHLVDDLLTPCSPGDPGAIEMTWMDVPGDKLLEPVVSMSDMLRSLSNTKPTVNEHDLLKLKKFTEDFGQEG [VPS4B]	-0.125	50.5	50.2	0.98	1.43	0.414
MSSVSPIQIPSRLPLLLTHEGVLLPGSTMRTSVDSARNLQLVRSRLLKGTSLQSTILGVIPNTPDPASDAQDLPPLHRIGTAALAVQVVGSNWPKPHYTLLITGLCRFQIVQVLKEKPYPIAEVEQLDRLEEFPNTCKMREELGELSEQFYKYAVQLVEMLDMSVPAVAKLRRLLDSLPREALPDILTSIIRTSNKEKLQILDAVSLEERFKMTIPLLVRQIEGLKLLQKTRKPKQDDDKRVIAIRPIRRITHISGTLEDEDEDEDNDDIVMLEKKIRTSSMPEQAHKVCVKEIKRLKKMPQSMPEYALTRNYLELMVELPWNKSTTDRLDIRAARILLDNDHYAMEKLKKRVLEYLAVRQLKNNLKGPILCFVGPPGVGKTSVGRSVAKTLGREFHRIALGGVCDQSDIRGHRRTYVGSMPGRIINGLKTVGVNNPVFLLDEVDKLGKSLQGDPAAALLEVLDPEQNHNFTDHYLNVAFDLSQVLFIATANTTATIPAALLDRMEIIQVPGYTQEEKIEIAHRHLIPKQLEQHGLTPQQIQIPQVTTLDIITRYTREAGVRSLDRKLGAICRAVAVKVAEGQHKEAKLDRSDVTEREGCREHILEDEKPESISDTTDLALPPEMPILIDFHALKDILGPPMYEMEVSQRLSQPGVAIGLAWTPLGGEIMFVEASRMDGEGQLTLTGQLGDVMKESAHLAISWLRSNAKKYQLTNAFGSFDLLDNTDIHLHFPAGAVTKDGPSAGVTIVTCLASLFSGRLVRSDVAMTGEITLRGLVLPVGGIKDKVLAAHRAGLKQVIIPRRNEKDLEGIPGNVRQDLSFVTASCLDEVLNAAFDGGFTVKTRPGLLNSKL [LONP2]	-0.132	52.3	52.1	0.257	0.49	0.0116
